Six molecules from PMC11965310, “Inhibition of tau neuronal internalization using anti-tau single domain antibodies” (Nature Communications, 2025) can be followed below.

Holding throughout (conditions): both partners purified
One test concerns the target T1, tau2N4R (Homo sapiens, UniProt P10636-8, biotin (NHS-biotin, 3 molar excess) when immobilised in SPR; 15N-labelled in NMR).
T1 construct: tau protein, isoform 2N4R, the largest tau isoform; Expressed from pET15b-tau2N4R; also called full-length tau2N4R; largest tau isoform; source: E. coli BL21 (DE3), purified (heating at 75 °C, cation exchange)
Description: SPR; biotinylated tau2N4R, tau1N4R or tauMTBD captured on a streptavidin (SA) chip; VHHs without tag as analytes, 0.0625-4 μM, single-cycle kinetics; 25 °C, HBS EP+; 1:1 Langmuir model. (Surface plasmon resonance follows binding to a sensor surface in real time, without labels.)

Another test deals with T2, tau1N4R (Homo sapiens, UniProt P10636-7, biotin (NHS-biotin, 3 molar excess) when immobilised in SPR; Alexa Fluor 546 C5-maleimide on its two native cysteine residues in the uptake assay).
T2 construct: tau protein, isoform 1N4R; Used without a stated label as analyte on LRP1 cluster III; also called full-length tau1N4R; monomeric tau1N4R; source: E. coli BL21 (DE3), purified (heating at 75 °C, cation exchange)
The test is described as above.

A further test has as its target T3, tauMTBD (Homo sapiens, UniProt P10636, biotin (NHS-biotin, ratio 1:0.5) when immobilised in SPR; Atto488 NHS ester in the uptake assay).
T3 construct: also called tauMTBD fragment; source: E. coli BL21 (DE3), purified (heating at 75 °C, cation exchange)
Described as above.

In test [1] the target is T4, tau[369–381] C-terminal peptide (Homo sapiens).
T4 construct: also called tau-C-ter peptide; tau-Cter peptide
T4 chain: KKIETHKLTFREN
Description: AlphaScreen or HTRF; 6His-VHH bound by anti-6His antibody-Terbium (1.5 nM) and 6His-VHH bound by anti-6His antibody-D2 (20 nM); tau-Cter peptide 32 nM to 100 µM; 1 h at room temperature. A general note: Alpha assays give light when donor and acceptor beads are brought close together.

Test [2] deals with T4, tau[369–381] C-terminal peptide. Description: SPR; biotinylated VHH-Cys captured on SA chip; tau[369-381] peptide as analyte, multi-cycle kinetics; 25 °C, HBS EP+; kinetic analysis, 1:1 Langmuir model.
For test [3] the target is unchanged. The test can be described thus: SPR; same data as the multi-cycle kinetics; steady-state analysis of maximum responses, one-site specific binding model.
Test [4] has the same target. Description: SPR; biotinylated VHH-Cys captured on SA chip; tau[369-381] peptide as analyte, multi-cycle kinetics; 25 °C, HBS EP+; kinetic analysis, 1:1 Langmuir model.
Test [5] shares this target. Description: SPR; same data as the multi-cycle kinetics; steady-state analysis of maximum responses, one-site specific binding model.

T2 sequence (P10636 other isoform, or with tags, fused parts or gaps): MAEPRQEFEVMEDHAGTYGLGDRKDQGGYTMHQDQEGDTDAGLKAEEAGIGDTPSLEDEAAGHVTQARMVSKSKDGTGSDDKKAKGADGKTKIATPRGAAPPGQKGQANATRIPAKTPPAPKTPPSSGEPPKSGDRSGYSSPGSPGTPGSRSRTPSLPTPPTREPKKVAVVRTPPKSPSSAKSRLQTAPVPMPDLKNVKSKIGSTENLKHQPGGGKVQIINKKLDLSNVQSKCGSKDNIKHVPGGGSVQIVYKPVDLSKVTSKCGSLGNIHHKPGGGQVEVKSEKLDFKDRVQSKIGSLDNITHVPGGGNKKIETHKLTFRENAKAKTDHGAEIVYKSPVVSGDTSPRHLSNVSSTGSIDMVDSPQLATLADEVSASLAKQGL
T1 sequence (P10636 other isoform, or with tags, fused parts or gaps): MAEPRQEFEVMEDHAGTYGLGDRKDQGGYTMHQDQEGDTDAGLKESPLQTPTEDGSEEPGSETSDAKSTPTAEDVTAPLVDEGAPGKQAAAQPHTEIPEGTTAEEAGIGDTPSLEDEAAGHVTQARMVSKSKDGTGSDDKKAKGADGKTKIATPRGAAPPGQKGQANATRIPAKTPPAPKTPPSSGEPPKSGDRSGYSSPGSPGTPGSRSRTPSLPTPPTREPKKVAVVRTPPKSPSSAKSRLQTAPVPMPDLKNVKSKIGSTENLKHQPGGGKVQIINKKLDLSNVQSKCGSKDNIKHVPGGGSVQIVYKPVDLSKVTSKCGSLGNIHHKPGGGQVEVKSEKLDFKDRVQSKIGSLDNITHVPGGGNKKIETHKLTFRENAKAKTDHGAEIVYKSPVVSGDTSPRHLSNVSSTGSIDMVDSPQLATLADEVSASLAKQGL
T3 sequence (P10636 whole entry, looked up, the tested form may be a part): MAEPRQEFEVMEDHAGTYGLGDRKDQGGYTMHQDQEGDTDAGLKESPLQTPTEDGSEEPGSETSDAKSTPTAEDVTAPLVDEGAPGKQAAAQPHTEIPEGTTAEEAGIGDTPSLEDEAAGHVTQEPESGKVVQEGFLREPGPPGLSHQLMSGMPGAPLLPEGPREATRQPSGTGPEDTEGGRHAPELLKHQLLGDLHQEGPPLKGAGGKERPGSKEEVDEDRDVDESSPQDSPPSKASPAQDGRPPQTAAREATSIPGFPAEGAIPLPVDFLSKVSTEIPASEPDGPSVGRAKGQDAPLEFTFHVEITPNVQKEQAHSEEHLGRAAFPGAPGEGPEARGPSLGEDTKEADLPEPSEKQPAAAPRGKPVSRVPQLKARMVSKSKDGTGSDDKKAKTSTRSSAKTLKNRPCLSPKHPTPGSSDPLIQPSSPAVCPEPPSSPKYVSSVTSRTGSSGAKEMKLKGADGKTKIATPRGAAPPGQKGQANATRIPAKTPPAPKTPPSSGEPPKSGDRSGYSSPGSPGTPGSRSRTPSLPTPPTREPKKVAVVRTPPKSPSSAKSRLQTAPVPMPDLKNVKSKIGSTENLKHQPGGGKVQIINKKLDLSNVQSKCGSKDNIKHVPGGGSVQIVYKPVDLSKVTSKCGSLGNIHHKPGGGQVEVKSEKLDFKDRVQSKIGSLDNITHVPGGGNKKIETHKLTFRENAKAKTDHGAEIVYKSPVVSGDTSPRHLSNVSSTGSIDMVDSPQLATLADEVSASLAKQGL

B1: VHH F8-2 (VHH)
VHH: EVQLQASGGGFVQPGGSLRLSCAASGGTSYWDGMGWFRQAPGKEREFVSAISGRGNIGTYYADSVKGRFTISRDNSKNTVYLQMNSLRAEDTATYYCAAFRHEVHGSMRHEWEVIKYWGQGTQVTVSS
notes: source: E. coli periplasm, purified (IMAC, SEC, TEV cleavage, second IMAC); not shown: His6, N-terminal, cleaved
As for B1, in the test with tau2N4R, binding was put at a Kd of 753 nM; the koff (commonly a measure of how fast the partners let go of each other) was found to be 0.04 s⁻¹; the association rate constant (kon) (in general, the rate constant with which the complex forms) was 53100 M⁻¹ s⁻¹. Moreover, in the test with tau1N4R, the affinity, expressed as Kd, was 740 nM; the koff amounted to 0.0425 s⁻¹; the kon was found to be 57500 M⁻¹ s⁻¹.

B2: VHH H3-2 (VHH)
VHH: EVQLQASGGGFVQPGGSLRLSCAASGYTSGDEIMGWFRQAPGKEREFVSAISWQSGTSTYYADSVKGRFTISRDNSKNTVYLQMNSLRAEDTATYYCAPMTLAETYYEWLISGYWGQGTQVTVSS
notes: From the Nali-H1 VHH library; Forms a swapped dimer in the crystal and mostly a dimer in SEC at 20 µM; Coupled to 10 nm gold beads for electron microscopy; source: E. coli periplasm, purified (IMAC, SEC, TEV cleavage, second IMAC); not shown: His6, N-terminal, cleaved
With B2, in the test with tau2N4R, the Kd (commonly the constant that tells how readily two partners part at equilibrium) turned out to be 8.9 nM, the koff came to 0.0056 s⁻¹ and the kon amounted to 630000 M⁻¹ s⁻¹. For the same molecule, in the test with tau1N4R, the dissociation constant (Kd) was determined as 11 nM, the off-rate (koff) was determined as 0.006 s⁻¹ and the association rate constant (kon) was 554000 M⁻¹ s⁻¹. The binding result with tauMTBD is reported as “no binding (tested: 4 μM)”.

B3: 6His-VHH H3-2 (VHH)
VHH: EVQLQASGGGFVQPGGSLRLSCAASGYTSGDEIMGWFRQAPGKEREFVSAISWQSGTSTYYADSVKGRFTISRDNSKNTVYLQMNSLRAEDTATYYCAPMTLAETYYEWLISGYWGQGTQVTVSS
notes: as the VHH chain of m8; The construct has a TEV site between the 6-His tag and the VHH; also called 6Histag-H3-2; source: E. coli periplasm, purified; not shown: His6, N-terminal, kept
Turning to B3, in test [1], the EC50 (as a rule, the concentration at which the effect is half-maximal) amounted to 2700 nM.

B4: biotinylated VHH H3-2 with a cysteine at the C-terminus (VHH)
VHH: EVQLQASGGGFVQPGGSLRLSCAASGYTSGDEIMGWFRQAPGKEREFVSAISWQSGTSTYYADSVKGRFTISRDNSKNTVYLQMNSLRAEDTATYYCAPMTLAETYYEWLISGYWGQGTQVTVSS
notes: as the VHH chain of m8; additional C-terminal cysteine; source: E. coli periplasm, purified (IMAC, SEC, TEV cleavage, second IMAC); not shown: His6, N-terminal, cleaved
Take B4: in test [2], the Kd stood at 280 nM, the koff amounted to 0.071 s⁻¹ and the kon is 192000 M⁻¹ s⁻¹. Moreover, in test [3], the Kd was found to be 297 nM and the stoichiometry N (as a rule, a count of units in the complex or per binding partner) was determined as 0.41. This molecule also came in with a Kd in test [4] of 297 to 380 nM.

B5: VHH E2-2 (VHH)
VHH: EVQLQASGGGFVQPGGSLRLSCAASGSTYDFDAMGWFRQAPGKEREFVSAISGDADLARYYADSVKGRFTISRDNSKNTVYLQMNSLRAEDTATYYCAAFRHEVHGSMRHEWEVIKYWGQGTQVTVSS
notes: From the Nali-H1 VHH library; source: E. coli periplasm, purified (IMAC, SEC, TEV cleavage, second IMAC); not shown: His6, N-terminal, cleaved
As to B5, in the test with tau2N4R, binding was characterised by a dissociation constant (Kd) of 84 nM, the koff was 0.0038 s⁻¹ and the kon is 44900 M⁻¹ s⁻¹. Further, in the test with tau1N4R, the Kd worked out at 96 nM, the koff amounted to 0.0045 s⁻¹ and the kon was 46700 M⁻¹ s⁻¹. The binding result in the test with tauMTBD is on record as “no binding (tested: 4 μM)”.

B6: biotinylated VHH E2-2 with a cysteine at the C-terminus (VHH)
VHH: EVQLQASGGGFVQPGGSLRLSCAASGSTYDFDAMGWFRQAPGKEREFVSAISGDADLARYYADSVKGRFTISRDNSKNTVYLQMNSLRAEDTATYYCAAFRHEVHGSMRHEWEVIKYWGQGTQVTVSS
notes: as the VHH chain of m11; additional C-terminal cysteine; source: E. coli periplasm, purified (IMAC, SEC, TEV cleavage, second IMAC); not shown: His6, N-terminal, cleaved
For the molecule B6, in test [2], the affinity, expressed as Kd, was 820 nM; the koff is 0.124 s⁻¹; the kon is 154000 M⁻¹ s⁻¹. In test [3], the Kd was 578 nM and the “stoichiometry N” value was 0.45. The molecule also displayed a Kd in test [5] of 518 to 820 nM.
